Data published in the supplement of paper PMC9170038.

System: MS2 coat protein
Assay: apparent KD of MS2 coat protein; designed switch direction (-1 OFF switch, 1 ON switch): -1; higher = weaker reporter binding
How it was run: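 Apparent KD, taken as the median over clusters for each design, was obtained by curve-fitting normalised cluster fluorescence. Designed RNA switches had been transcribed on Illumina chips by stalled E. coli RNA polymerase and titrated with SNAP-549-labelled MS2 coat protein, doubling from 0.7 or 1.5 nM to 3 µM.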

[1] = Eterna round: R95, input ligand: FMN 200 uM
[2] = Eterna round: R95, input ligand: microRNA oligo, concentration not stated
[3] = Eterna round: R95, input ligand: none
[4] = input ligand: microRNA oligo, concentration not stated

Sequence: CUGAGCAGACGAAGAUCCAACAUGAGGAUCACCCAUGUCUCAAAAGCUUUUUGCUUGUCUUAUCCUUCCCUGCUCUC [Isbies] (puzzle: Sensor v3, turn-off variant 1)
- apparent KD of MS2 coat protein [1]: 14.3 nM
- apparent KD of MS2 coat protein [2]: 207 nM
- apparent KD of MS2 coat protein [3]: 12.9 nM

Sequence: AGAGUGCUGCGAGGAUAUACAUGAGGAUCACCCAUGUGGUCCUGUGAGGCAAAGCCUCACAGGAUGUAGAAGGCGCAGUACUCA [Mat - Exclusion NG 2 - Mod of JL - D46] (Eterna round: R96, puzzle: Exclusion NG 2)
- apparent KD of MS2 coat protein (input ligand: FMN 200 uM): 57 nM
- apparent KD of MS2 coat protein [4]: 14.2 nM
- apparent KD of MS2 coat protein (input ligand: none): 19.9 nM

Sequence: AGCCACAGAGGAUAUACAUACAUCCAGUAGUUAAGAAUAUUACAUGAGGAUCACCCAUGUAGAAGGCUGUGGCA [Omei Ex2 BD B7] (Eterna round: R97, puzzle: Exclusion 2)
- apparent KD of MS2 coat protein (input ligand: FMN 200 uM): 352 nM
- apparent KD of MS2 coat protein (input ligand: none): 35.4 nM

Sequence: GUCAGCUCGUGAGGAUAUGCACAUGAGGAUCACCCAUGUAAGAUCAAGCUGCUUCGGCAGCAAGUGCAGAAGGUACGAGCUGAC [ENG2/9-C1] (Eterna round: R96, puzzle: Exclusion NG 2)
- apparent KD of MS2 coat protein (input ligand: FMN 200 uM): 200 nM
- apparent KD of MS2 coat protein [4]: 207 nM
- apparent KD of MS2 coat protein (input ligand: none): 297 nM

Sequence: GUGAUCUAUCAUGGAAUAAACAUGAGGAUCACCCAUGUAGACAAGUUUUUUGCUCGUCUUAUAAUAAGAUAGAUCAC [Antenna 14 - Jieux - Sensor, turn-off variant 1] (Eterna round: R97, puzzle: Sensor, turn-off variant 1)
- apparent KD of MS2 coat protein (input ligand: FMN 200 uM): 15.5 nM
- apparent KD of MS2 coat protein (input ligand: none): 14.2 nM

Sequence: CCUUUGUCAGGAUAUCAGAACGCGCUCGAAAGGAACGCAAAUGAGAAGGGACAUGAGGAUCACCCAUGUAAAGA [Enenrixe] (puzzle: Exclusion 4)
- apparent KD of MS2 coat protein [1]: 158 nM
- apparent KD of MS2 coat protein [2]: 42.8 nM
- apparent KD of MS2 coat protein [3]: 45 nM

Sequence: CAGUACUGAGGAUAUACAUGAGGAUCACCCAUGUGUACCAGCUAGGAUACUAGCAAAAGUAGAAGGCAGUACUG [Mat - Exclusion 3 - Eli Mod - D21] (Eterna round: R97, puzzle: Exclusion 3)
- apparent KD of MS2 coat protein (input ligand: FMN 200 uM): 31.2 nM
- apparent KD of MS2 coat protein (input ligand: none): 19.5 nM

Sequence: CGUUGAUGAGGAUAUCGAUGUUAGUACAUGAGGAUCACCCAUGUUAUCCAAGUGUCGGAUCGAGAAGGUAUUGGAC [LRO-Ex5-19] (puzzle: Exclusion 5)
- apparent KD of MS2 coat protein [2]: 241 nM

Sequence: AAGAAACAUGAGGAUCACCCAUGUGAGGAUAUGUAAAAGAAAAGAAAAGAAAGAAGAAACAGAAGGCACAAAGG [Mat - Mod of Hog D12] (puzzle: Exclusion 1)
- apparent KD of MS2 coat protein [1]: 82 nM
- apparent KD of MS2 coat protein [2]: 50.7 nM
- apparent KD of MS2 coat protein [3]: 45.2 nM

Sequence: GGCAUCGGAGGAUAUACUUAUGGUGAUGCCCGAAGCUUUCUACUUGAGGAUCACCCAAGUAGAAGGCCGAUGCC [jl-ex2.4.79 ViennaUCT mod] (Eterna round: R97, puzzle: Exclusion 2)
- apparent KD of MS2 coat protein (input ligand: FMN 200 uM): 11.2 nM
- apparent KD of MS2 coat protein (input ligand: none): 12.7 nM

Sequence: AAAUACAAGUAAGGAUUCUACAUGAGGAUCACCCAUGUGCUCGUCUUAUAAAGUACUAUCACGAAAGUGAUAGUACA [Sensor 3, v1 - 38] (puzzle: Sensor v3, turn-off variant 1)
- apparent KD of MS2 coat protein [1]: 22 nM
- apparent KD of MS2 coat protein [2]: 190 nM
- apparent KD of MS2 coat protein [3]: 26.2 nM

Sequence: UCCAAGUUUGUAGGAUAUACUCUCCUUUGGAGAGUAGAAGGACAUGAGGAUCACCCAUGUUGUAUAAAUUUGGGAUGUUCCUCG [random3] (Eterna round: R96, puzzle: Exclusion NG 1)
- apparent KD of MS2 coat protein (input ligand: FMN 200 uM): 122 nM
- apparent KD of MS2 coat protein [4]: 51.3 nM
- apparent KD of MS2 coat protein (input ligand: none): 91.8 nM

Sequence: AGUACUGACACGAAAGUGUUAGUACAAUAAGCUUGUGAAACAUGAGGAUCACCCAUGUCCUCAUAAGCUCGUCUUAU [salish99_TOv2_r3_017] (puzzle: Sensor v3, turn-off variant 2)
- apparent KD of MS2 coat protein [1]: 16 nM
- apparent KD of MS2 coat protein [2]: 1200 nM
- apparent KD of MS2 coat protein [3]: 13.8 nM

Sequence: CGGUGCUGAGGAUAUACAUGAGGAUCACCCAUGUGUUCCAGCUAGCGUACUGGCAGAUGUAGAAGGCGGUACUG [JL-ex3-3.42 Brourd mod] (puzzle: Exclusion 3)
- apparent KD of MS2 coat protein [1]: 78.9 nM
- apparent KD of MS2 coat protein [2]: 19.9 nM
- apparent KD of MS2 coat protein [3]: 19 nM

Sequence: UUAUAUAGUAUAGGAUAUUAGAGGAGAAUGGUGAUAGAGACAUGAGGAUCACCCAUGUGAGGAGAUAAGAAGGGUAAUAAUUAU [AK ExNG2-V2-3] (Eterna round: R96, puzzle: Exclusion NG 2)
- apparent KD of MS2 coat protein (input ligand: FMN 200 uM): 326 nM
- apparent KD of MS2 coat protein [4]: 176 nM
- apparent KD of MS2 coat protein (input ligand: none): 351 nM

Sequence: ACAUGUGUUGUAGGAUAUAGGAGACAUGAGGAUCACCCAUGUUGAUUCAUGUCUAUGGAAACGUCCUAGAAGGACGACAACAUG [Ex NG2 #20] (Eterna round: R96, puzzle: Exclusion NG 2)
- apparent KD of MS2 coat protein (input ligand: FMN 200 uM): 237 nM
- apparent KD of MS2 coat protein [4]: 111 nM
- apparent KD of MS2 coat protein (input ligand: none): 201 nM

Sequence: GCAUUUGAGCAGGAUAUAGCCUGAACAUAAUGGUUAGAAGGGCUCACAUGAGGAUCACCCAUGUGGUGUCCAAA [Inratete] (puzzle: Exclusion 6)
- apparent KD of MS2 coat protein [1]: 76.4 nM
- apparent KD of MS2 coat protein [2]: 15.3 nM
- apparent KD of MS2 coat protein [3]: 15.6 nM

Sequence: AAAACACAUGAGGAUCACCCAUGUGAGGAUAUGUUGAUUUUGAUCAAAGUUAAGAUUAACAGAAGGCACAUAAA [JR_Exclusion1_Sub018] (puzzle: Exclusion 1)
- apparent KD of MS2 coat protein [1]: 34.5 nM
- apparent KD of MS2 coat protein [2]: 36.1 nM
- apparent KD of MS2 coat protein [3]: 35.2 nM

Sequence: GAGUUAACAUGAGGAAUAUACAUGAGGAUCACCCAUGUUAACAAAUUUAUUGCUCGUCUUAUAACAACAAUUAACUC [Alarm 5 - Jieux - Sensor, turn-off variant 1] (Eterna round: R97, puzzle: Sensor, turn-off variant 1)
- apparent KD of MS2 coat protein (input ligand: FMN 200 uM): 105 nM
- apparent KD of MS2 coat protein (input ligand: none): 111 nM

Sequence: ACGUGAUAUCUGUCGGUGGACAUGAGGAUCACCCAUGUAAGCUUUUUGCCCGUCUUAUAACCCGGUGACAGACCUUC [Orlequla] (puzzle: Sensor v3, turn-off variant 1)
- apparent KD of MS2 coat protein [1]: 32.4 nM
- apparent KD of MS2 coat protein [2]: 340 nM
- apparent KD of MS2 coat protein [3]: 53.6 nM

Sequence: GGAUCGAAUGUGAGGAUAUGCUGGUCCUUGGAUCAGCAGAAGGCACAUGAGGAUCACCCAUGUGGUUCCGAUCC (Eterna round: R97, puzzle: Brourd's mod of Exclusion 4)
- apparent KD of MS2 coat protein (input ligand: FMN 200 uM): 161 nM
- apparent KD of MS2 coat protein (input ligand: none): 876 nM

Sequence: UUCCUCAUAACAUGAGGAUCACCCAUGUAUUAUUUGAUAACUGAGGAUAUACUAAUAAUGUUUAUGUAGAAGGCAGAUACAGAU [JR_ExcNG3_Sub015] (Eterna round: R96, puzzle: Exclusion NG 3)
- apparent KD of MS2 coat protein (input ligand: FMN 200 uM): 623 nM
- apparent KD of MS2 coat protein [4]: 69.1 nM
- apparent KD of MS2 coat protein (input ligand: none): 59.1 nM

Sequence: UAUAUAUAGUAAGGAUAUGUAUAUAUUUUAUUAACAGAAGGUACUGACAUGAGGAUCACCCAUGUUUUAGUGUGGGCAUGUAGA [JMF's solution 69] (Eterna round: R96, puzzle: Exclusion NG 1)
- apparent KD of MS2 coat protein [4]: 55.2 nM

Sequence: AGGGAACGAGGAUAUCGAUGGUGGAACAUGAGGAUCACCCAUGUAUGAGAUAGAGUAGGGCGAGAAGGCGUUAAGA [JR_E5_Sub051] (puzzle: Exclusion 5)
- apparent KD of MS2 coat protein [1]: 47.6 nM
- apparent KD of MS2 coat protein [2]: 55.6 nM
- apparent KD of MS2 coat protein [3]: 84.9 nM

Sequence: AACGUCGAAGGAUAUACAUGAGGAUCACCCAUGUGGGACCUGUAAUCUCACCCAUCGUGUAGAAGGUUGAGGUA [Learberi] (Eterna round: R97, puzzle: Exclusion 3)
- apparent KD of MS2 coat protein (input ligand: FMN 200 uM): 29.9 nM
- apparent KD of MS2 coat protein (input ligand: none): 35.6 nM
